Measurements taken from patent US20190111150A1 (AbbVie / Abbott, published 2019).

B1: anti-CD71 Ab21.12 LcB:HcC antibody (antibody, V domains shown)
VH: QVQLVQSGAEVKKPGASVKMSCKASGYTFTSYWMHWVRQAPGQGLEWIGAIYPGNSETGYAQKFQGRATLTADTSTSTAYMELSSLRSEDTAVYYCTRENWDPGFAFWGQGTLITVSS
VL: DIQMTQSPSSLSASVGDRVTITCSASSSVYYMYWFQQKPGKAPKLWIYSTSNLASGVPSRFSGSGSGTDYTLTISSMQPEDFATYYCQQRRNYPYTFGQGTKLEIK
notes: Humanized; also called huCD71 21.12 Ab; anti-CD71 21.12 antibody
B2: conjugated antibody anti-CD71 Ab21.12-vcMMAE E2 (antibody, V domains shown)
VH: QVQLVQSGAEVKKPGASVKMSCKASGYTFTSYWMHWVRQAPGQGLEWIGAIYPGNSETGYAQKFQGRATLTADTSTSTAYMELSSLRSEDTAVYYCTRENWDPGFAFWGQGTLITVSS
VL: DIQMTQSPSSLSASVGDRVTITCSASSSVYYMYWFQQKPGKAPKLWIYSTSNLASGVPSRFSGSGSGTDYTLTISSMQPEDFATYYCQQRRNYPYTFGQGTKLEIK
modifications: vc-MMAE conjugated; DAR about 2 (E2); positions not given
notes: Unmasked antibody drug conjugate of Ab21.12
B3: humanized anti-CD71 antibody Ab21.10 LcB:HcA (antibody, V domains shown)
VH: QVQLVQSGAEVKKPGASVKVSCKASGYTFTSYWMHWVRQAPGQGLEWMGAIYPGNSETGYAQKFQGRVTMTRDTSTSTVYMELSSLRSEDTAVYYCARENWDPGFAFWGQGTLVTVSS
VL: DIQMTQSPSSLSASVGDRVTITCSASSSVYYMYWFQQKPGKAPKLWIYSTSNLASGVPSRFSGSGSGTDYTLTISSMQPEDFATYYCQQRRNYPYTFGQGTKLEIK
notes: Detected with anti-human IgG
B4: anti-CD71-TF02.13-2011, protease-activated (cleaved) (antibody, not shown: small tags and cut ends)
heavy: not shown
light: DIQMTQSPSSLSASVGDRVTITCSASSSVYYMYWFQQKPGKAPKLWIYSTSNLASGVPSRFSGSGSGTDYTLTISSMQPEDFATYYCQQRRNYPYTFGQGTKLEIKRTVAAPSVFIFPPSDEQLKSGTASVVCLLNNFYPREAKVQWKVDNALQSGNSQESVTEQDSKDSTYSLSSTLTLSKADYEKHKVYACEVTHQGLSSPVTKSFNRGEC
notes: the mask is released
B5: anti-CD71-TF02.13-2011-vcMMAE E2, protease-activated (cleaved) (antibody, not shown: small tags and cut ends)
heavy: not shown
light: DIQMTQSPSSLSASVGDRVTITCSASSSVYYMYWFQQKPGKAPKLWIYSTSNLASGVPSRFSGSGSGTDYTLTISSMQPEDFATYYCQQRRNYPYTFGQGTKLEIKRTVAAPSVFIFPPSDEQLKSGTASVVCLLNNFYPREAKVQWKVDNALQSGNSQESVTEQDSKDSTYSLSSTLTLSKADYEKHKVYACEVTHQGLSSPVTKSFNRGEC
modifications: vc-MMAE on interchain cysteine thiols; drug load 2 per antibody; chain and positions not stated
notes: m14 after protease treatment; the mask is released
B6: anti-CD71 activatable antibody anti-CD71-TF02.13-2011, intact (uncleaved) (antibody, human IgG1, kappa)
heavy: not shown
light: NLCTEHSAALDCRSYGGGSSGGSISSGLLSGRSDNPGGGSDIQMTQSPSSLSASVGDRVTITCSASSSVYYMYWFQQKPGKAPKLWIYSTSNLASGVPSRFSGSGSGTDYTLTISSMQPEDFATYYCQQRRNYPYTFGQGTKLEIKRTVAAPSVFIFPPSDEQLKSGTASVVCLLNNFYPREAKVQWKVDNALQSGNSQESVTEQDSKDSTYSLSSTLTLSKADYEKHKVYACEVTHQGLSSPVTKSFNRGEC
notes: copies: 2 + 2
B7: anti-CD71 conjugated activatable antibody anti-CD71-TF02.13-2011-vcMMAE E2, intact (uncleaved) (antibody, human IgG1, kappa)
heavy: not shown
light: NLCTEHSAALDCRSYGGGSSGGSISSGLLSGRSDNPGGGSDIQMTQSPSSLSASVGDRVTITCSASSSVYYMYWFQQKPGKAPKLWIYSTSNLASGVPSRFSGSGSGTDYTLTISSMQPEDFATYYCQQRRNYPYTFGQGTKLEIKRTVAAPSVFIFPPSDEQLKSGTASVVCLLNNFYPREAKVQWKVDNALQSGNSQESVTEQDSKDSTYSLSSTLTLSKADYEKHKVYACEVTHQGLSSPVTKSFNRGEC
modifications: vc-MMAE (maleimide caproyl-valine-citrulline linker with monomethyl auristatin E) on interchain cysteine thiols after partial TCEP reduction; drug load 2 per activatable antibody; chain and positions not stated
notes: E2 = enriched for drug load 2 (DAR about 2); also called AADC; copies: 2 + 2

Assays:
recombinant mouse CD71 = target: T1, recombinant mouse CD71 (mouse, UniProt Q62351 89-763); assay: ELISA on recombinant mouse CD71 (ECD)
T1 construct: extracellular domain; also called mouse CD71 ECD

[1] = target: T2, human CD71 on the surface of human cell lines (human, UniProt P02786 1-760); assay: FACS on NCI H292 cells; apparent Kd (Kapp)
T2 construct: whole, on cells; also called cell-surface human CD71; CD71 on BxPC3, NCI-H292, HCC1806, HT-29, NCI-H520 cells
T2 sequence (P02786 whole entry): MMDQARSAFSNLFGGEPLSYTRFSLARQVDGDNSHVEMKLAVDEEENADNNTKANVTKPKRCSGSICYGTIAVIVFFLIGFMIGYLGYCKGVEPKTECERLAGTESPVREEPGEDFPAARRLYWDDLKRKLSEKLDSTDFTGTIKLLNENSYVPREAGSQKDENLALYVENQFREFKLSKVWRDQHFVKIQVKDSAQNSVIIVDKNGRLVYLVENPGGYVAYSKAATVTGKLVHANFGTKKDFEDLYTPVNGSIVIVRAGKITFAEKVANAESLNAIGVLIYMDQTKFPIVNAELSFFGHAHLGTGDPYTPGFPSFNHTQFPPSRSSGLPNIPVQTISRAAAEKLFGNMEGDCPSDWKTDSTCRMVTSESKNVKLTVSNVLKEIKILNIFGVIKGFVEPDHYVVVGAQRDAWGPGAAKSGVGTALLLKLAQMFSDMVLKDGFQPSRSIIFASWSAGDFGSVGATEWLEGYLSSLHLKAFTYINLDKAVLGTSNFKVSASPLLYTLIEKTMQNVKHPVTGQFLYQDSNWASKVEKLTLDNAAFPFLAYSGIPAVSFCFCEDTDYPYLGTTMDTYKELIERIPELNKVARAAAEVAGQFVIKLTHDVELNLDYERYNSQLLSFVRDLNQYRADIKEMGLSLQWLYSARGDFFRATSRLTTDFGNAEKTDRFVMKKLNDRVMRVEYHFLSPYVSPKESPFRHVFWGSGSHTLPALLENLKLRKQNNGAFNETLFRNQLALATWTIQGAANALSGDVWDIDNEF

[2] = target: T3, rat CD71 on rat H-4-II-E hepatoma cells (rat, UniProt Q99376 1-761); assay: flow cytometry on rat H-4-II-E hepatoma cells
T3 construct: whole, on cells; also called rat CD71-expressing cell line
T3 sequence (Q99376 whole entry): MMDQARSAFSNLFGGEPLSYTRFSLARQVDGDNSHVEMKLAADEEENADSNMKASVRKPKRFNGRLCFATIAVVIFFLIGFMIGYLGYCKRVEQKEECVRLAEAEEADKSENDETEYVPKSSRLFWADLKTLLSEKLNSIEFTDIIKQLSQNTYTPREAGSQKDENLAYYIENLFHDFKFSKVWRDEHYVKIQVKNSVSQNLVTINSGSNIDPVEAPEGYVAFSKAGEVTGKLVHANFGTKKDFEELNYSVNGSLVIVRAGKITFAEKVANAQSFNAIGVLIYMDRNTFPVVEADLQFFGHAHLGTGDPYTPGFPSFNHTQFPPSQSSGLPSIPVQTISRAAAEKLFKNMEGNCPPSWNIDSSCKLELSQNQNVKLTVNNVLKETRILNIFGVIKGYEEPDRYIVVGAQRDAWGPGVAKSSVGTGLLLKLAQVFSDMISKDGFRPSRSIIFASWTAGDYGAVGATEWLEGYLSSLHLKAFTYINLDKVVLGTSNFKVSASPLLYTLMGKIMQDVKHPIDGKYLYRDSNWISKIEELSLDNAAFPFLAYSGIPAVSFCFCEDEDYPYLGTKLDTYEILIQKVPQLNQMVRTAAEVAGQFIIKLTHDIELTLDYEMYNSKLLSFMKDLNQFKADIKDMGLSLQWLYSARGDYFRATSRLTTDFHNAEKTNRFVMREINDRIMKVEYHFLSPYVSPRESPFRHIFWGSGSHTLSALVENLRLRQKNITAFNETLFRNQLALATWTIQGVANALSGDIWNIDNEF

[3] = target: T4, recombinant human CD71 extracellular domain (human, UniProt P02786 89-760); assay: ELISA on recombinant CD71 ECD; apparent Kd (Kapp)
T4 construct: extracellular domain; Treated as one molecule; also called rhCD71; human CD71 ECD
T4 sequence (P02786 89-760): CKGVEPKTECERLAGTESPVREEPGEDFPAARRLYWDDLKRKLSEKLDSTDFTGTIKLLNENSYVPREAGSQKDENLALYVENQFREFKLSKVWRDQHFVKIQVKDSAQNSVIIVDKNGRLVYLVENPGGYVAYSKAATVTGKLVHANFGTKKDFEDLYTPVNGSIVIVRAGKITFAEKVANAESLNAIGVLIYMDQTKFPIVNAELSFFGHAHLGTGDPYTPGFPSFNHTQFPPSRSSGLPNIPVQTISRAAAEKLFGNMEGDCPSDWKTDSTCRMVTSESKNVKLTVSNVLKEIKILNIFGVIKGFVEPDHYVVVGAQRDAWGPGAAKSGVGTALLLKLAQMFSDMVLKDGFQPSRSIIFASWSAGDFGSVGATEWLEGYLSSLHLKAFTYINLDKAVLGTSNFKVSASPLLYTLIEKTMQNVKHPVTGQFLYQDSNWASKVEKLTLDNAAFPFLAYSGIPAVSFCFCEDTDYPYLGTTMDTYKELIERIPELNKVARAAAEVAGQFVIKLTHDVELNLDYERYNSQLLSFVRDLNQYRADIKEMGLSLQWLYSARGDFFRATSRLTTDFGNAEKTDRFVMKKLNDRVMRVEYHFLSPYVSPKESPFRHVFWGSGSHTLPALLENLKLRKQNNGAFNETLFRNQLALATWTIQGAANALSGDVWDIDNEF

[4] = target: T5, recombinant cynomolgus monkey CD71 extracellular domain (cynomolgus monkey, UniProt H9EXL1 89-760 (rhesus entry)); assay: ELISA on recombinant CD71 ECD; apparent Kd (Kapp)
T5 construct: extracellular domain; also called rcCD71; monkey recombinant CD71
T5 sequence (chain, as listed by the source): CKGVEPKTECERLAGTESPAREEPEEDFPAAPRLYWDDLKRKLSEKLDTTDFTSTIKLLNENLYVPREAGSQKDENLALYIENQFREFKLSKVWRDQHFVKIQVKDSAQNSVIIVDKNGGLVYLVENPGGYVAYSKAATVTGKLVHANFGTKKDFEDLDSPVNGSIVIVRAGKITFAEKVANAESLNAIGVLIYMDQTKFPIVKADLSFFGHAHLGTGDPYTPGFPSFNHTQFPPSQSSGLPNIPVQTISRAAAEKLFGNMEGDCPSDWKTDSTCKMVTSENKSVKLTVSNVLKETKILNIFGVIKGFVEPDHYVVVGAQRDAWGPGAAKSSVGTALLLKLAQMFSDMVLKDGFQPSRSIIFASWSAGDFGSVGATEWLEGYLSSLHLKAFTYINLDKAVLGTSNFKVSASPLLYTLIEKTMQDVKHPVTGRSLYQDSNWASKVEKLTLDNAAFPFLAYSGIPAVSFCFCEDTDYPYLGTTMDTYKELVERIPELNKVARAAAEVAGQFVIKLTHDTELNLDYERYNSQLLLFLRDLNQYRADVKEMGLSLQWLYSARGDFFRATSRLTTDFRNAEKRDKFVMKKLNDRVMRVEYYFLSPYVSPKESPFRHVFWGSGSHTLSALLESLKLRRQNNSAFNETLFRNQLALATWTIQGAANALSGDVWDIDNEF

[5] = target: T2, human CD71 on the surface of human cell …; assay: flow cytometry on human BxPC3 cells; apparent Kd (Kapp)
[6] = target: T4, recombinant human CD71 extracellular …; assay: ELISA on coated recombinant human CD71 ECD (rhCD71); Kapp
Experimental: (§1) In the ELISA examples, recombinant cynomolgus or human CD71 ECD proteins were coated on ELISA plates, and then incubated with one of a range of concentrations of the test articles of the present disclosure, followed by measurement of the amount of bound test article with a secondary antibody.

[7] = target: T5, recombinant cynomolgus monkey CD71 …; assay: ELISA on coated recombinant cynomolgus CD71 ECD (rcCD71); Kapp
Experimental: as §1

[8] = target: T6, cynomolgus monkey CD71 on cells (cynomolgus monkey, UniProt H9EXL1 1-760 (rhesus entry)); assay: flow cytometry on CHO-K1 cells expressing cynomolgus CD71; Kapp
T6 construct: whole, on cells; also called cell-surface cynomolgus CD71; CHO w/ Cynomolgus CD71
T6 sequence (chain, as listed by the source): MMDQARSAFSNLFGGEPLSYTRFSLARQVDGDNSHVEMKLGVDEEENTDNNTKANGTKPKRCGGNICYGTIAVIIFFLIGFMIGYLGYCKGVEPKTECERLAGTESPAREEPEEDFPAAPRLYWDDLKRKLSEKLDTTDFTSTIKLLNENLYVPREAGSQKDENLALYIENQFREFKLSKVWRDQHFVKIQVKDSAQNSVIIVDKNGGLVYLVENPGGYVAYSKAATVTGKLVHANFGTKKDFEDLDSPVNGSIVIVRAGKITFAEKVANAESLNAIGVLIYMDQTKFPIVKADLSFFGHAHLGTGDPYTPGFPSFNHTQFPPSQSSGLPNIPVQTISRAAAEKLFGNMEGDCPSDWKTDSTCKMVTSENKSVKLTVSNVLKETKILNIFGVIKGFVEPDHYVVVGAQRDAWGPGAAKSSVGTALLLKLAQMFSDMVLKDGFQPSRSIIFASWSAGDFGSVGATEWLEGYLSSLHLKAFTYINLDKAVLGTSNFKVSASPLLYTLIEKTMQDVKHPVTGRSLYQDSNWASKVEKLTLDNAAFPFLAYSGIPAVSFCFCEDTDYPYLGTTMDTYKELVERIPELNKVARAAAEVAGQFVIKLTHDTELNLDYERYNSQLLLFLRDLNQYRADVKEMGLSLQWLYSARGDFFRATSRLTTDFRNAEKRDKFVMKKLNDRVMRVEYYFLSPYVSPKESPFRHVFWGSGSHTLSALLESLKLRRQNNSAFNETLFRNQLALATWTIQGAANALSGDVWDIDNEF
Text: (§2) The flow cytometry results reflect the average measured Kapp from four human cell lines (HCC1806 human breast cancer, HT-29 human colorectal cancer, NCI-H292 human lung cancer, and NCI-H520 human lung cancer) and one CHO-K1 cell line expressing cynomolgus monkey CD71.

[9] = target: T6, cynomolgus monkey CD71 on cells; assay: flow cytometry on cynomolgus monkey primary kidney epithelial cells; apparent Kd (Kapp)
[10] = target: T2, human CD71 on the surface of human cell …; assay: flow cytometry, average of 4 human cell lines (HCC1806, HT-29, NCI-H292, NCI-H520); Kapp
Text: as §2

[11] = target: T2, human CD71 on the surface of human cell …; assay: FACS on cells
[12] = target: T4, recombinant human CD71 extracellular …; assay: ELISA, recombinant human CD71 (R&D Systems) coated at 1 ug/mL; Kd(app)
Experimental: (§3) The amount of bound antibody in each sample was detected by incubation and detection by goat anti-human antibody conjugated to horseradish peroxidase and Ultra TMB (Thermo Fisher Scientific) detection.

[13] = target: T5, recombinant cynomolgus monkey CD71 …; assay: ELISA, recombinant cynomolgus CD71 (R&D Systems) coated at 1 ug/mL; Kd(app)
Experimental: as §3

[14] = target: T5, recombinant cynomolgus monkey CD71 …; assay: ELISA on plate-coated recombinant cynomolgus CD71 (1 µg/mL), goat anti-human HRP, TMB, Abs 450
Experimental: as §3

[15] = target: T5, recombinant cynomolgus monkey CD71 …; assay: ratio of Kapp; ELISA on rcCD71
Experimental: as §1

[16] = target: T4, recombinant human CD71 extracellular …; assay: ratio of Kapp; ELISA on rhCD71
Experimental: as §1

[17] = target: T6, cynomolgus monkey CD71 on cells; assay: ratio of Kapp; flow cytometry on CHO-K1 cyno CD71
Text: as §2

[18] = target: T7, recombinant human FcγRIIIa F158 (human, UniProt P08637 17-208); assay: SPR (Biacore), FcγR captured via 6xHis tag, 1:1 binding fit
T7 construct: also called huFcγRIIIa F158
T7 sequence (P08637 17-208 limits assumed): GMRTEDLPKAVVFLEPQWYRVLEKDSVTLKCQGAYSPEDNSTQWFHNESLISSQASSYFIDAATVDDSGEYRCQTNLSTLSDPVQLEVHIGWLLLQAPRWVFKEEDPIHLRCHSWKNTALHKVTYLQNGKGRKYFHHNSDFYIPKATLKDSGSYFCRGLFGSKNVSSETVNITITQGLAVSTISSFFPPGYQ
Experimental: (§4) Mouse anti-6×His antibodies were directly immobilized on a CMS chip by amine coupling according to manufacturer's protocol to the density of 10000 RU. Human FcγRs were then captured on Flow Cells 2, 3 and 4 to achieve capture level of the FcγRs of 250-500 RU. Flow Cell 1 was used as a reference surface. HBS-EP+ buffer (GE, Healthcare) was used as the running buffer. […] The chip surfaces were regenerated with an injection of 100 mM HCl at a flow rate of 100 μL/minute for two seconds over all four flow cells. Three experiments with the use of three different CMS chips were run for each sample (each in duplicate) to accommodate all types of experimental error (instrument, surface and operator). The results of these three experiments were averaged.
(§5) All recombinant human FcγRIIIa V158 data and FcγRIIIa F158 data were fitted to 1:1 binding fit model with Rmax fixed local to account for variability in capture levels. Recombinant human FcγRIIb, FcγRIIa H131, and FcRn binding data were fitted to a steady state affinity model. Biacore T200 Evaluation Software Version 2.0 was used to fit all the data.

[19] = target: T8, recombinant human FcγRIIIa V158 (human, UniProt P08637 17-208); assay: as above
T8 construct: also called huFcγRIIIa V158
T8 sequence (P08637 17-208 F176V): as the sequence (P08637 17-208 limits assumed) above, with F160V counted along it
Experimental: as §4, §5

[20] = target: T2, human CD71 on the surface of human cell …; assay: ratio of Kapp; flow cytometry, average of 4 human cell lines
Text: as §2

[21] = target: T9, recombinant human FcγRIIa H131 (human, UniProt P12318 36-218, limits assumed); assay: SPR (Biacore), FcγR captured via 6xHis tag, steady state affinity model
T9 construct: also called huFcγRIIa H131; FcγIIa H131
T9 sequence (looked up): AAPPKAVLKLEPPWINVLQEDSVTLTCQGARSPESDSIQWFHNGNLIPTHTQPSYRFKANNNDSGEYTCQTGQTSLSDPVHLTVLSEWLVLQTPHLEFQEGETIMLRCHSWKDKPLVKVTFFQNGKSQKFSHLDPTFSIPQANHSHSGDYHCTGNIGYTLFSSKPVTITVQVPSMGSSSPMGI
Experimental: as §4, §5

human FcRn = target: T10, human FcRn (human, UniProt P55899 24-297; P61769 21-119); assay: SPR (Biacore), antibody immobilized, FcRn injected, pH 6.0, steady state affinity model; FcRn at pH 6.0
T10 construct: also called Hu FcRn; neonatal Fc receptor
T10 sequence (P55899 24-297 limits assumed, form in doubt, chain 1 of 2): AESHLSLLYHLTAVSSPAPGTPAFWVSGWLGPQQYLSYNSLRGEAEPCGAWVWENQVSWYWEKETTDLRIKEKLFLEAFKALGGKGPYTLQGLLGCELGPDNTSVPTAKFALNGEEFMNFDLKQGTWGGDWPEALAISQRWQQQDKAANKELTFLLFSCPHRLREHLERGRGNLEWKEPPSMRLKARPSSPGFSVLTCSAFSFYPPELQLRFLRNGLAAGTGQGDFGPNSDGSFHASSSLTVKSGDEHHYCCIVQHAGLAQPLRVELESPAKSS
T10 sequence (P61769 21-119 limits assumed, form in doubt, chain 2 of 2): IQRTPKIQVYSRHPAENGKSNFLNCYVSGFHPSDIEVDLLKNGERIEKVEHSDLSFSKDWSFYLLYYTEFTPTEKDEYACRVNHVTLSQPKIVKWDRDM
Experimental: The surfaces were regenerated with an injection of 100 mM HCl for two seconds followed by HBS-EP+, pH 7.4. Samples were prepared and run in two running buffer systems, MES-EP+ pH 6.0 and HBS-EP pH 7.4. Three experiments with the use of three different CMS chips were run for each sample (each in duplicate) to account for instrument, surface and operator error. The results of these three experiments were averaged.
as §5

[22] = target: T6, cynomolgus monkey CD71 on cells; assay: flow cytometry on CHO cells expressing cynomolgus CD71, Alexa Fluor 647 goat anti-human IgG (MFI)
human FcγRI = human FcγRI (human, UniProt P12314 16-288, limits assumed); assay: FcγRI competition binding ELISA (results not shown)
human FcγRI, sequence (P12314 16-288 limits assumed): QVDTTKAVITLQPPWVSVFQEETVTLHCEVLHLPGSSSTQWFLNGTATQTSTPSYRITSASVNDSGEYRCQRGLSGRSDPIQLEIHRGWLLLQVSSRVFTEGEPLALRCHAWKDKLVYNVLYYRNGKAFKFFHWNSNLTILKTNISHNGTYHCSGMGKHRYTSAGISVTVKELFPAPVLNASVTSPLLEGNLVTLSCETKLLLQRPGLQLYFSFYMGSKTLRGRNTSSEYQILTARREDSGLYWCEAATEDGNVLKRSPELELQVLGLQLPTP

Row | Binder | Kd [6] [nM] | Kd [7] [nM] | Kd [8] [nM] | Kd [10] [nM] | Kd [12] [nM] | Kd [13] [nM] | EC50 (read off the curve) [14] [nM] | other results
1 | B1 | 0.03 | 0.03 | 0.3 | 0.8 |  |  |  | binding result (recombinant mouse CD71): no binding; Kd [1]: 2.29 nM; binding result [2]: no binding; Kd [3]: 0.3 nM; Kd [4]: 0.4 nM; Kd [5]: 3 nM; Kd [9]: 3 nM
2 | B2 | 0.04 | 0.03 |  |  |  |  |  | 
3 | B3 |  |  |  |  |  |  |  | binding result [11]: binds
4 | B4 | 0.06 | 0.04 | 0.5 | 2 | 0.04 | 0.06 | ~0.06 | 
5 | B5 | 0.05 | 0.04 | 0.7 | 2 | 0.05 | 0.07 | ~0.07 | 
6 | B6 | 1.94 | 1.11 | 28 | 106 | 0.42 | 1.24 | ~1 | Ratio anti-CD71-TF02.13-2011/Ab21.12 [15]: 37; Ratio anti-CD71-TF02.13-2011/anti-CD71-TF02.13-2011, matriptase activated [15]: 28; Ratio anti-CD71-TF02.13-2011/Ab21.12 [16]: 65; Ratio anti-CD71-TF02.13-2011/anti-CD71-TF02.13-2011, matriptase activated [16]: 32; Ratio anti-CD71-TF02.13-2011/Ab21.12 [17]: 93; Ratio anti-CD71-TF02.13-2011/anti-CD71-TF02.13-2011, matriptase activated [17]: 56; Kd [18]: 1800 nM; Kd [19]: 180 nM; Ratio anti-CD71-TF02.13-2011/Ab21.12 [20]: 127; Ratio anti-CD71-TF02.13-2011/anti-CD71-TF02.13-2011, matriptase activated [20]: 55; Kd [21]: 4700 nM; Kd (human FcRn): 4700 nM; EC50 (read off the curve) [22]: ~30 nM
7 | B7 | 2.58 | 1.02 | 35 | 98.1 | 0.48 | 1.49 | ~1 | binding result (human FcγRI): binds; Kd [18]: 2100 nM; Kd [21]: 6200 nM; Kd (human FcRn): 5300 nM; EC50 (read off the curve) [22]: ~30 nM
